Experimental data reported in US11628159B2, “Cell-protective compounds and their use” (ETH ZURICH, priority 2017, dated 2023).

Experiments:
[1] = system: GPCR phosphorylation; details: Lorenz K, et al., Nature 426, 574-579 (2003); read-out: reported IC50 value for RKIP-mediated inhibition of GPCR phosphorylation; cited from earlier work
[2] = target: T1, GRK2 (Mus musculus, UniProt Q99MK8); assay: Depletion of GRK2 from Tg-RKIP heart lysates by affinity purification of RKIP; assay type: binding; details: serine-153 phosphorylated transgenic RKIP, n=4
T1 construct: from tissue; host or cells: heart lysate of Tg-RKIP mice
T1 sequence (Q99MK8 1-689): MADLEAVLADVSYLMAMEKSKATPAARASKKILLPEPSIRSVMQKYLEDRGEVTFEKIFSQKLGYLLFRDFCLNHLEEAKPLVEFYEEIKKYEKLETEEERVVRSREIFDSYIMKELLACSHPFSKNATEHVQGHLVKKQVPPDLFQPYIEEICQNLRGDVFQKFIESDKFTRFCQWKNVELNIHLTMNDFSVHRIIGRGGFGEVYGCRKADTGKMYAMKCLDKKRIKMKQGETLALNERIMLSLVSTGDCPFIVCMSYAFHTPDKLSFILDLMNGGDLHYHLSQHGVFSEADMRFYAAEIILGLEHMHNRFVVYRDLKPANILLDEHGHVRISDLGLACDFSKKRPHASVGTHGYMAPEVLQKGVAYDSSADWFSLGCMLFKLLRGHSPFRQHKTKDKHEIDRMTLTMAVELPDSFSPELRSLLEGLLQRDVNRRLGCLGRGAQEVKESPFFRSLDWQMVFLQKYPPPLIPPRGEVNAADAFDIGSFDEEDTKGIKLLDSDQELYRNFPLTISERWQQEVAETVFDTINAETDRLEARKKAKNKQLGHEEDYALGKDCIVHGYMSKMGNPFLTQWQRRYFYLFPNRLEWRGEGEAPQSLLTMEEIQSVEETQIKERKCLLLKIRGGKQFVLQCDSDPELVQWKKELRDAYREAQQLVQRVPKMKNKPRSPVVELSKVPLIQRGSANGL
Excerpt: A, Immunoblot detection of serine-153 phosphorylation of RKIP (pS153) in Tg-RKIP and B6 control hearts (n=5 mice/group). B, Removal of RKIP by affinity purification (AP) with immobilized RKIP-specific antibodies depletes the GRK2 protein from Tg-RKIP heart lysates. A control affinity purification with unrelated antibodies did neither deplete RKIP nor GRK2. Upper panels show representative experiments and lower panels show quantitative data evaluation (±s.d., n=4; *, p=0.0286; Mann Whitney Test). C, Isoproterenol-stimulated cAMP response in neonatal cardiomyocytes from Tg-RKIP and Tg-GRK2-K220R mice (n=6; ±s.d.).
The GRK2-inhibitory activity of transgenic RKIP (human RKIP˜PEBP1) was controlled in vivo. The phosphorylation of RKIP on serine-153 switches RKIP from Raf1 inhibition to GRK2 inhibition (Lorenz K, et al., Nature 426, 574-579 (2003)). Substantial serine-153 phosphorylation of RKIP was documented by immunoblot detection in Tg-RKIP hearts (FIG. 7A). […] We determined the GRK2 inhibition-mediated resensitization of the isoproterenol-stimulated cAMP response in neonatal cardiomyocytes as readout for GRK2 inhibition by RKIP and GRK2-K220R, respectively (Abd Alla, J, et al., J. Biol. Chem. 291, 2583-2600 (2016); Kong K C, et al., Biochemistry 47, 9279-9288 (2008)).

GRK2 protein bound and neutralized in Tg-RKIP hearts [2]: 90.4%
B1: RKIP: raf kinase inhibitor protein, a dual-specific GRK2 and Raf kinase inhibitor (protein, UniProt P30086 2-187, looked up)
Phosphatidylethanolamine-bindi …: PVDLSKWSGPLSLQEVDEQPQHPLHVTYAGAAVDELGKVLTPTQVKNRPTSISWDGLDSGKLYTLVLTDPDAPSRKDPKYREWHHFLVVNMKGNDISSGTVLSDYVGSGPPKGTGLHRYVWLVYEQDRPLKCDEPILSNRSGDHRGKFKVASFRKKYELRAPVAGTCYQAEWDDYVPKLYEQLSGK
IC50 [1]: 460 nM
